“And” between values parts separate entries of the source, which are not always exact repeats. Equal values may be shown once.
B1: Fab fragment of Antibody A (Fab, V domains shown)
VH: DVQLVESGGGVVRPGESLRLSCAASGFSFSSYAMNWVRQAPGEGLEWVSRINSGGGGTDYAESVKGRFTISRDNSENTLYLQMNSLRAEDTAVYYCAKQYDWNSFFDYWGLGALVTVSS
VL: ETVLTQSPATLSVSPGERATLSCRASQTVGSKLAWHQQKPGQAPRLLIYDATNRATGISDRFSGSGSGTDFTLTISSLQTEDSAVYYCQQYYYWPPYRFGGGTKVEIK
B2: Fab fragment of Antibody C (Fab, V domains shown)
VH: DVQLVESGGGVVRPGESLRLSCEASGFTFSSNAMSWVRQAPGKGLEWVAGISSGSDTYYGDSVKGRLTISRDNSKNILYLQMNSLTAEDTAVYYCARETWNHLFDYWGQGTLVTVSS
VL: SYELTQPPSVSVSPGQTARITCSGGSYSSYYYAWYQQKPGQAPVTLIYSDDKRPSNIPERFSGSSSGTTVTLTISGVQAEDEADYYCGGYDQSSYTNPFGGGTKLTVL

Target: Drug A
Experiment: cell-based or functional assay

| Binder | hemagglutination of Drug A-coated erythrocytes with anti-IgG; molar excess of Fab that prevented it (fold molar excess relative to Drug A) |
| --- | --- |
| B1 | 2500 |
| B2 | 200 and 400 |
